Reference: patent publication US20260241018A1

Assays:
[1] = target: dog 5T4 expressed on CHO-S cells (CHO-d5T4 cells) (dog); assay: flow cytometry, CHO-d5T4 cells
[2] = target: monkey (Macaca fascicularis) 5T4 expressed on CHO-S cells (CHO-fas5T4 cells) (monkey (Macaca fascicularis)) (UniProt Q4R8Y9); assay: flow cytometry, CHO-fas5T4 cells
[3] = target: mouse 5T4 expressed on CHO-S cells (CHO-m5T4 cells) (mouse) (UniProt Q9Z0L0); assay: flow cytometry, CHO-m5T4 cells
[4] = target: human 5T4 expressed on CHO-S cells (CHO-h5T4 cells) (human) (UniProt Q13641); assay: flow cytometry, CHO-h5T4 cells
human 5T4 expressed on CHO-S cells (CHO-h5T4 cells) (human), sequence (Q13641 32-355): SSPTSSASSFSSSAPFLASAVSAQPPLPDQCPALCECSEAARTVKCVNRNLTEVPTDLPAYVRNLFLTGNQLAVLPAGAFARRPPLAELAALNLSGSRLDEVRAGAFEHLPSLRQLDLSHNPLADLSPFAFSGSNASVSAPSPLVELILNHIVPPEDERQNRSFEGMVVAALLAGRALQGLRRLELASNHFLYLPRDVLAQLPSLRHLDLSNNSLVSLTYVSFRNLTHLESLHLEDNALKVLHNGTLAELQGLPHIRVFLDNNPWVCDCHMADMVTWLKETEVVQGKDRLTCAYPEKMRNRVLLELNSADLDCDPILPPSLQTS

mouse 5T4 expressed on CHO-S cells (CHO-m5T4 cells) (mouse), sequence (Q9Z0L0 32-361): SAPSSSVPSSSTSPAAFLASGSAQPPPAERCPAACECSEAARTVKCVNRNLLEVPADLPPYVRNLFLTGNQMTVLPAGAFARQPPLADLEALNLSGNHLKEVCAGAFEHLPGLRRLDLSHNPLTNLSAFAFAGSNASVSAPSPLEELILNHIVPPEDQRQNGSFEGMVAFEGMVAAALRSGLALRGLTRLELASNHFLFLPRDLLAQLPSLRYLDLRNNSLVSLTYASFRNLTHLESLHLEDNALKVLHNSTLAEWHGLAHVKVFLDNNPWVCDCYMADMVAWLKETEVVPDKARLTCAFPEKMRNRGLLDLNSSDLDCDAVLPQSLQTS
monkey (Macaca fascicularis) 5T4 expressed on CHO-S cells (CHO-fas5T4 cells) (monkey (Macaca fascicularis)), sequence (Q4R8Y9 35-355): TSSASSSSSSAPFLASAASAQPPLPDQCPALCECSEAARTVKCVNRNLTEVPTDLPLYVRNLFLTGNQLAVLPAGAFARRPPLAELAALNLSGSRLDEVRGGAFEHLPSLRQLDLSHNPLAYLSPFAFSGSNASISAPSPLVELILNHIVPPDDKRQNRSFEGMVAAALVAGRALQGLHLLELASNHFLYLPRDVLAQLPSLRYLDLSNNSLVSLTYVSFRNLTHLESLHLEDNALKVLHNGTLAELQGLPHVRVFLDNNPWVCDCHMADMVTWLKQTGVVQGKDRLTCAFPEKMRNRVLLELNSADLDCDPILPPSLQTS
dog 5T4 expressed on CHO-S cells (CHO-d5T4 cells) (dog), sequence (chain, as listed by the source limits assumed): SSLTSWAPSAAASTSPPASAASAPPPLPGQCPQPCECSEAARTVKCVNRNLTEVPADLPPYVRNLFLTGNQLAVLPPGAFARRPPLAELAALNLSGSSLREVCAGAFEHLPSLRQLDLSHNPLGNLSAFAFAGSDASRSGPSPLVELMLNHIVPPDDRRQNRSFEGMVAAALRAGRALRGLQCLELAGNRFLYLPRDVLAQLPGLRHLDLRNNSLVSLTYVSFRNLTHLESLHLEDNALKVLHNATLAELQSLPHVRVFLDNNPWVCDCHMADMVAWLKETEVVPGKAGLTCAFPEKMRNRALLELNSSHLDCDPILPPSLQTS

Percentage of Positive Cells [1] | Percentage of Positive Cells [2] | Percentage of Positive Cells [3] | Percentage of Positive Cells [4] | Substance
0.2% | 1.6% | 0.2% | 2% | NC + secondary antibody
1% | 1.3% | 0.7% | 1% | NC
